Experimental data from PMC12748774.

Columns and labels:
[1] = target: JEV CC_FLE sE (G5C/G102C), disulfide-linked dimer (Japanese encephalitis virus (SA-14-14-2 strain)); test: cryo-EM structure
[2] = target: JEV CC_FLE sE (G5C/G102C), disulfide-linked dimer (Japanese encephalitis virus (SA-14-14-2 strain)); test: SEC; purified sE proteins on a Superose 6 column
[3] = target: WNV CC_FLE sE (G5C/G102C), dimer (West Nile virus); test: cryo-EM structure
[4] = target: WNV CC_FLE sE (G5C/G102C), dimer (West Nile virus); test: SEC; purified sE proteins on a Superose 6 column
[5] = target: ZIKV CC_Core sE (A264C), disulfide-linked dimer (Zika virus (Brazilian strain SPH2015)); test: SEC
[6] = target: ZIKV CC_Core sE (A264C), disulfide-linked dimer (Zika virus (Brazilian Zika SPH2015 strain)); test: cryo-EM structure
[7] = target: ZIKV CC_Core sE (A264C), disulfide-linked dimer (Zika virus (Brazilian Zika SPH2015 strain)); test: SEC; purified sE proteins on a Superose 6 column
[8] = target: ZIKV CC_Core sE (A264C), disulfide-linked dimer (Zika virus (Brazilian strain SPH2015)); test: SDS-PAGE with and without the reducing reagent DTT
[9] = target: ZIKV CC_FLE sE (G5C/G102C), disulfide-linked dimer (Zika virus (Brazilian strain SPH2015)); test: SEC
[10] = target: ZIKV CC_FLE sE (G5C/G102C), disulfide-linked dimer (Zika virus (Brazilian Zika SPH2015 strain)); test: cryo-EM structure
[11] = target: ZIKV CC_FLE sE (G5C/G102C), disulfide-linked dimer (Zika virus (Brazilian Zika SPH2015 strain)); test: SEC; purified sE proteins on a Superose 6 column
[12] = target: ZIKV CC_FLE sE (G5C/G102C), disulfide-linked dimer (Zika virus (Brazilian strain SPH2015)); test: SDS-PAGE with and without the reducing reagent DTT

Measured: stoichiometry N

JEV CC_FLE sE (G5C/G102C), disulfide-linked dimer (domain or fragment)
2: [1] | [2]

WNV CC_FLE sE (G5C/G102C), dimer (domain or fragment)
2: [3] | [4]

ZIKV CC_Core sE (A264C), disulfide-linked dimer (domain or fragment)
2: [5] | [6] | [7] | [8]

ZIKV CC_FLE sE (G5C/G102C), disulfide-linked dimer (domain or fragment)
2: [9] | [10] | [11] | [12]
